The values that follow come from patent publication US20210371499A1.

Test [1] addresses DMF5 TCR.
Test [2] concerns the target DMF5 TCR. Nature of the test: flow cytometry of Jurkat/MA cells transduced with DMF5, stained with the pooled barcoded tetramer library. For orientation: In flow cytometry, cells or beads pass a laser one at a time.

Substance “CMVpp65/HLA-A*02:01 tetramer (from UniProt P61769 21-119) (peptide-MHC)” gave a percent tetramer-positive cells in the test with DMF5 TCR [1] of 0.1%.
In the test with DMF5 TCR [2], “MART-1/HLA-A*02:01 tetramer (from UniProt P61769 21-119) (peptide-MHC)” came in with a percent DMF5 positive cells of 33%.
